These results are taken from patent US20240116985A1 (published 2024).

B1: I-754 (peptide)
peptide: XDLXDEAAFNXFXT
modifications: not fully specified; Ac-PL3-Asp-Leu-B5-Asp-Glu-Ala-Ala-Phe-Asn-S8-Phe-BztA-dThr-NH2: N-terminal acetyl; C-terminal amide; PL3 at 1, B5 at 4, S8 at 11 (stapled 1-4 and 4-11 by olefin metathesis); BztA at 13; D-Thr at 14
notes: Stapled peptide; also called Ac-PL3-Asp-Leu-B5-Asp-Glu-Ala-Ala-Phe-Asn-S8-Phe-BztA-dThr-NH2
B2: I-757 (peptide)
peptide: Ac-[αAllylPro]DL[B5(4)]DEAAFN[S8]F[Bta][dN]-NH2
modifications: staple 1-4, 4-11; also: earlier eluting HPLC peak (staple isomer)
notes: Stapled peptide; same description as I-758, earlier eluting HPLC peak (staple isomer composition); also called Ac-PL3-Asp-Leu-B5-Asp-Glu-Ala-Ala-Phe-Asn-S8-Phe-BztA-dAsn-NH2
B3: I-755 (peptide)
peptide: Ac-[αAllylPro]DL[B5(4)]DEAAFN[S8]F[Bta][dT]-NH2
modifications: staple 1-4, 4-11; also: later eluting HPLC peak (staple isomer)
notes: as for B1
B4: I-758 (peptide)
peptide: Ac-[αAllylPro]DL[B5(4)]DEAAFN[S8]F[Bta][dN]-NH2
modifications: staple 1-4, 4-11; also: later eluting HPLC peak (staple isomer)
notes: Stapled peptide; also called Ac-PL3-Asp-Leu-B5-Asp-Glu-Ala-Ala-Phe-Asn-S8-Phe-BztA-dAsn-NH2
B5: I-759 (peptide)
peptide: Ac-[αAllylPro]DL[B5(4)]DEAAFN[S8]F[Bta][NMeS]-NH2
modifications: staple 1-4, 4-11; also: earlier eluting HPLC peak (staple isomer)
notes: Stapled peptide; same description as I-760, earlier eluting HPLC peak (staple isomer composition); also called Ac-PL3-Asp-Leu-B5-Asp-Glu-Ala-Ala-Phe-Asn-S8-Phe-BztA-NMeS-NH2
B6: I-756 (peptide)
peptide: Ac-[αAllylPro]DL[B5(4)]DEAAFN[S8]F[Bta][dS]-NH2
modifications: staple 1-4, 4-11
notes: Stapled peptide; also called Ac-PL3-Asp-Leu-B5-Asp-Glu-Ala-Ala-Phe-Asn-S8-Phe-BztA-dSer-NH2
B7: I-760 (peptide)
peptide: Ac-[αAllylPro]DL[B5″]DEAAFN[S8]F[Bta][NMeS]-NH2
modifications: staple 1-4, 4-11
notes: Stapled peptide; also called Ac-PL3-Asp-Leu-B5-Asp-Glu-Ala-Ala-Phe-Asn-S8-Phe-BztA-NMeS-NH2
B8: I-397 (peptide)
peptide: XDAXDHAAFVXFXQ
modifications: not fully specified; as printed: Ac-PL3-Asp-Ala-B5-Asp-His-Ala-Ala-Phe-Val-S8-3FF-BztA-Gln-NH2; N-terminal acetyl, C-terminal amide; staples PL3(1)-B5(4) and B5(4)-S8(11) by olefin metathesis
notes: Stapled (stitched) peptide
B9: I-399 (peptide)
peptide: XDAXDHAAFQXFXQ
modifications: not fully specified; as printed: Ac-PL3-Asp-Ala-B5-Asp-His-Ala-Ala-Phe-Gln-S8-3FF-BztA-Gln-NH2; N-terminal acetyl, C-terminal amide; staples PL3(1)-B5(4) and B5(4)-S8(11) by olefin metathesis
notes: Stapled (stitched) peptide
B10: I-398 (peptide)
peptide: Ac-[αAllylPro]DA[B5(16)]DHAAFV[SeN″][Phe(3-F)][Bta]Q-NH2
modifications: staple 1-4, 4-11; not fully specified; printed as Ac-PL3-Asp-Ala-B5-Asp-His-Ala-Ala-Phe-Val-SeN-3FF-BztA-Gln-NH2
notes: Stapled (stitched) peptide
B11: I-400 (peptide)
peptide: Ac-[αAllylPro]DA[B5(16)]DHAAFQ[SeN″][Phe(3-F)][Bta]Q-NH2
modifications: staple 1-4, 4-11; not fully specified; printed as Ac-PL3-Asp-Ala-B5-Asp-His-Ala-Ala-Phe-Gln-SeN-3FF-BztA-Gln-NH2
notes: Stapled (stitched) peptide

Starred links: 1 amine or outer side, 2 acyl side, 3 side chain; linkers in the order of their positions; H or OH if unused. Positions of bridges follow the written chain, without caps; N, C: chain ends. Non-standard residues stand in square brackets, D forms with d. Primed or numbered codes have the meaning given here. SeN″ = (S)-5-(((allyloxy)carbonyl)(methyl)amino)-2-amino-2-methylpentanoic acid (stapling residue), C=CCOC(=O)N(C)CCC[C@](C)(N[*:1])C(=O)[*:2]; B5(16) = 2-amino-2-(pent-4-en-1-yl)hept-6-enoic acid = 2,2-bis(4-pentenyl)glycine (stitching residue), C=CCCCC(CCCC=C)(N[*:1])C(=O)[*:2]; B5(23) = 2-amino-2-(pent-4-en-1-yl)hept-6-enoic acid (2,2-bis(4-pentenyl)glycine), stitching residue, C=CCCCC(CCCC=C)(N[*:1])C(=O)[*:2]; B5(4) = 2,2-bis(4-pentenyl)glycine = 2-amino-2-(pent-4-en-1-yl)hept-6-enoic acid (stitching residue), C=CCCCC(CCCC=C)(N[*:1])C(=O)[*:2]; B5(21) = 2-amino-2-(pent-4-en-1-yl)hept-6-enoic acid, bis(4-pentenyl)glycine (stitching residue), C=CCCCC(CCCC=C)(N[*:1])C(=O)[*:2]; B5″ = 2,2-bis(4-pentenyl)glycine, stitching residue, C=CCCCC(CCCC=C)(N[*:1])C(=O)[*:2]; Phe(3-F) = N[C@@H](Cc1cccc(F)c1)C(=O)O; Phe(4-F) = N[C@@H](Cc1ccc(F)cc1)C(=O)O; Bta = N[C@@H](Cc1csc2ccccc12)C(=O)O; αAllylPro = C=CC[C@@]1(C(=O)O)CCCN1; S8 = C=CCCCCCC[C@](C)(N)C(=O)O; NMeS = CN[C@@H](CO)C(=O)O

For the first assay, the target named is T1, full-length beta-Catenin (Uniprot ID P35222) (Homo sapiens (Human), UniProt P35222 1-781).
T1 construct: also called bCat; B-Catenin
T1 sequence: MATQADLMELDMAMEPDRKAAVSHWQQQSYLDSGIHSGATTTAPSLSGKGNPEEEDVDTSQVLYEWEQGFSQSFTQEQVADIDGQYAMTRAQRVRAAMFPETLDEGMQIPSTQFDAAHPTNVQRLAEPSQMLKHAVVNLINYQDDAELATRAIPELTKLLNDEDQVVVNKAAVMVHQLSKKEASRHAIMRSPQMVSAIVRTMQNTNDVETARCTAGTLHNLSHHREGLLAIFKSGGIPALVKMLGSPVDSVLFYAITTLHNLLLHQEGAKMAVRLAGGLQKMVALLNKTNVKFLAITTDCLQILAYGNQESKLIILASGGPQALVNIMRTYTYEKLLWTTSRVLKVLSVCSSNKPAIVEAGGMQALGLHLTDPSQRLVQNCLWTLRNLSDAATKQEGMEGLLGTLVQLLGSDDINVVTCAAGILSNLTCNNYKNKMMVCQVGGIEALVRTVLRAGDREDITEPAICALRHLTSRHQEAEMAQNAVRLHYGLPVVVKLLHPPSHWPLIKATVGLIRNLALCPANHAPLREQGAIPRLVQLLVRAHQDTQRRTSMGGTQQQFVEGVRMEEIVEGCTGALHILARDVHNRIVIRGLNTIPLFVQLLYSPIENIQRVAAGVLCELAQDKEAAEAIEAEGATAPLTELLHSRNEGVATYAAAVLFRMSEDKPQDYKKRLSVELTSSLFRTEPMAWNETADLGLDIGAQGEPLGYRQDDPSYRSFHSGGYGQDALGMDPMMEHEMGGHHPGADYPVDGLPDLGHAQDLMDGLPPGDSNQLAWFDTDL
The assay is described as follows: fluorescence polarization competition; full-length beta-catenin, competitor 5FAM-TCF4(10-53) probe. The procedure, abridged:
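Incubate 60 minutes at 20° C. away from light, then read polarization in duplicate. Fit to 1:1 binding with hill slope.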
Background: Polarisation of emitted light reports the rotation of a fluorescent probe.
One may read the IC50 as the concentration needed to halve the response being measured. On to Ac-[αAllylPro]DA[B5(21)]DEAA[Phe(4-F)]N[S8]F[Bta]Q-NH2 (staple 1-4, 4-11, Stapled peptide composition) [I-455], for which the 50% inhibitory concentration (IC50) stood at 83.5 nM.

In the next assay the target is T2, full-length beta-Catenin (Uniprot ID P35222) (Homo sapiens (Human), UniProt P35222 1-781).
T2 construct: also called bCat; B-Catenin
T2 sequence: T1 sequence
The assay is described as follows: fluorescence polarization competition; full-length beta-catenin with 5FAM-TCF4(10-53) probe as competitor. As for the experimental part:
(§1) The plate was incubated protected from light for 60 minutes at 20° C. prior to read. Reads were performed on a CLARIOstar plate reader (BMG Labtech) in duplicate, and data were fitted to a 1:1 binding model with hill slope using an in-house script. All provided concentrations are final concentrations.
Consider B1, for which the IC50 was found to be 115 nM. The same measure, in the same setting: under B2 stands 64 nM; under B3, 88 nM; under B4, 47 nM. Same read-out and setting: as for B5, the figure is 1530 nM; as for B6, 56 nM.

With B7, the IC50 was 608 nM.

Another assay deals with T3, full-length beta-Catenin (Uniprot ID P35222) (Homo sapiens (Human), UniProt P35222 2-781).
T3 construct: also called bCat; B-Catenin
T3 sequence: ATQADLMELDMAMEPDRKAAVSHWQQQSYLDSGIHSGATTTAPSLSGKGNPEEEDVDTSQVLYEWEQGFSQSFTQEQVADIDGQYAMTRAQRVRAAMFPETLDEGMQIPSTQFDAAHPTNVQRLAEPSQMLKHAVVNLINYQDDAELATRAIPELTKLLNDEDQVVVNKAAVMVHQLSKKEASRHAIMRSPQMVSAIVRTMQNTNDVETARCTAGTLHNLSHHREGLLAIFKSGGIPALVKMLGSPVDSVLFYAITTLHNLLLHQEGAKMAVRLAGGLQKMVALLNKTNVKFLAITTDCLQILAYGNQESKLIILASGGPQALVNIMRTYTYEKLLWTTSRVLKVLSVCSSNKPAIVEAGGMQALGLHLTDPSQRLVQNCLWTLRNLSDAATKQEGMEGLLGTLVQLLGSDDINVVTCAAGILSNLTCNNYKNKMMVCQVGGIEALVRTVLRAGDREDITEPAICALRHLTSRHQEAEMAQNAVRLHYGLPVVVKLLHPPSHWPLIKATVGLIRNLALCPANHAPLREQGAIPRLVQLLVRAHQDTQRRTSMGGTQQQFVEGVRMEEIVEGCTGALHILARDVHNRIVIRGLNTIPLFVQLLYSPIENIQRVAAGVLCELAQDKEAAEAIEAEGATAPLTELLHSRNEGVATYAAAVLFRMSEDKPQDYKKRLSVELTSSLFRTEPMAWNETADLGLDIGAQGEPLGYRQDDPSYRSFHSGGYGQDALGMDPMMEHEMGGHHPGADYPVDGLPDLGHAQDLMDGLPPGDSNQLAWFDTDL
The assay is described as follows: fluorescence polarization competition; 10 nM full-length beta-catenin + 10 nM 5FAM-TCF4(10-53) probe, peptide titrated. On the procedure: as §1
As a reminder, the EC50 is the concentration that produces a half-maximal response. As to Ac-[αAllylPro]DA[B5(23)]DEAAFQ[S8]F[Bta]Q-NH2 (staple 1-4, 4-11, Stapled (stitched) peptide) [I-406], the EC50 was found to be 94 nM.

B8: the EC50 was found to be 2230 nM. The same measure, in the same setting: as for B9, the figure is 2500 nM; as for B10, 2160 nM; as for B11, 3590 nM.
